PMC3035606, “Structural Basis of Response Regulator Dephosphorylation by Rap Phosphatases” (PLoS Biology, 2011)
Numbering of substitutions follows the chain as printed. Numbers in names are those of the source. Like-named read-outs stand apart in the source and are kept apart here.

T1: Spo0F~P (radiolabeled phosphorylated Spo0F-His) (B. subtilis) (UniProt P06628)
T1 sequence (chain, phosphoaspartate-54 (32P)): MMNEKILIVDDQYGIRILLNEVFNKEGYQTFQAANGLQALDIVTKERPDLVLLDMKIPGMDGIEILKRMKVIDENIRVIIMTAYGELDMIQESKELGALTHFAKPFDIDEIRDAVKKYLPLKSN

T2: RapJ (B. subtilis), O34327
T2 chain: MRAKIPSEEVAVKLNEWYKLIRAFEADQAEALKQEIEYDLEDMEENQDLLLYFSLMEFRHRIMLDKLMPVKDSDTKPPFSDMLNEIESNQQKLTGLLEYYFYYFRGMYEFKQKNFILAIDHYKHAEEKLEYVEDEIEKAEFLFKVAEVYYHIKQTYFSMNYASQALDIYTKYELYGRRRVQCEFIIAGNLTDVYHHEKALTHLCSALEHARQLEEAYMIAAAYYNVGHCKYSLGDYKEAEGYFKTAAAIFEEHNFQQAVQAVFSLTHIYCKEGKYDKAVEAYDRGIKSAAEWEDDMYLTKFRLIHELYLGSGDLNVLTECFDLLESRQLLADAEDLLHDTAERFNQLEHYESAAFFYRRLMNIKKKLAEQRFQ

B1: RapH-E137A (enzyme)
chain: GSMSQAIPSSRVGVKINEWYKMIRQFSVPDAEILKAEVEQDIQQMEEDQDLLIYYSLMCFRHQLMLDYLEPGKTYGNRPTVTELLETIETPQKKLTGLLKYYSLFFRGMYEFDQKEYVEAIGYYREAEKELPFVSDDIAKAEFHFKVAEAYYHMKQTHVSMYHILQALDIYQNHPLYSIRTIQSLFVIAGNYDDFKHYDKALPHLEAALELAMDIQNDRFIAISLLNIANSYDRSGDDQMAVEHFQKAAKVSREKVPDLLPKVLFGLSWTLCKAGQTQKAFQFIEEGLDHITARSHKFYKELFLFLQAVYKETVDERKIHDLLSYFEKKNLHAYIEACARSAAAVFESSCHFEQAAAFYRKVLKAQEDILKGECLYAY
B2: RapH-Y175A (enzyme)
chain: B1 chain with A139E, Y177A
B3: RapH-L50A (enzyme)
chain: B1 chain with L52A, A139E
B4: RapH (enzyme, B. subtilis)
chain: B1 chain with A139E
notes: two heterologous N-terminal residues (Gly-Ser) derived from the thrombin cleavage signal; RapH, B. subtilis strain 168, residues 1-376 (MW theor 44.1 kDa); Dimer in the crystal and in solution; also called RapHA; RapHB; source: E. coli BL21, purified (glutathione resin, thrombin, Source 15Q, Superdex 200; dialysis instead of gel filtration for the phosphatase and phosphotransfer assays); not …
B5: RapH-D134A (enzyme)
chain: B1 chain with D136A, A139E
B6: RapH-F58A (enzyme)
chain: B1 chain with F60A, A139E
B7: Spo0F (natural protein, B. subtilis)
chain: GSMMNEKILIVDDQYGIRILLNEVFNKEGYQTFQAANGLQALDIVTKERPDLVLLDMKIPGMDGIEILKRMKVIDENIRVIIMTAYGELDMIQESKELGALTHFAKPFDIDEIRDAVKKYLPLKSN
notes: two heterologous N-terminal residues (Gly-Ser) derived from the thrombin cleavage signal; Spo0F, B. subtilis strain 168, residues 1-124; The methods name the vector pETDuet-1 but purify over glutathione resin and remove a GST tag; also called Spo0FA; Spo0FB; source: E. coli BL21(DE3), purified (glutathione resin, thrombin, Source 15Q and HiTrap Heparin flow-through, Superdex 200); …
B8: selenomethionyl Spo0F-D54E (natural protein, B. subtilis)
chain: B7 chain with D56E
modifications: selenomethionyl (selenomethionine derivatized)
notes: two heterologous N-terminal residues (Gly-Ser) derived from the thrombin cleavage signal; purified in an identical manner to Spo0F; Spo0F, B. subtilis strain 168, residues 1-124, with D54E; Used for SAD phasing; PDB 3Q15 holds the parent (wild-type Spo0F); source: E. coli BL21(DE3), purified as Spo0F (buffer D with 120 mM MgCl2); not shown: GST, N-terminal, cleaved
B9: RapF-H50L (enzyme)
chain: MTGVISSSSIGEKINEWYMYIRRFSIPDAEYLRREIKQELDQMEEDQDLLLYYSLMEFRHNLMLEYLEPLEKMRIEEQPRLSDLLLEIDKKQARLTGLLEYYFNFFRGMYELDQREYLSAIKFFKKAESKLIFVKDRIEKAEFFFKMSESYYYMKQTYFSMDYARQAYEIYKEHEAYNIRLLQCHSLFATNFLDLKQYEDAISHFQKAYSMAEAEKQPQLMGRTLYNIGLCKNSQSQYEDAIPYFKRAIAVFEESNILPSLPQAYFLITQIHYKLGKIDKAHEYHSKGMAYSQKAGDVIYLSEFEFLKSLYLSGPDEEAIQGFFDFLESKMLYADLEDFAIDVAKYYHERKNFQKASAYFLKVEQVRQLIQGGVSLYEIEV
B10: RapF (natural protein)
chain: B9 chain with L50H
B11: RapJ, O34327 1-373 (enzyme)
chain: T2 chain

Experiments:
[1] = target: T1, Spo0F~P (radiolabeled phosphorylated Spo0F-His) (B. subtilis)
[2] = target: T1, Spo0F~P (radiolabeled phosphorylated Spo0F-His) (B. subtilis); remark: listed apart in the source
[3] = target: the molecule itself; test: crystal structure; vapor diffusion at 20°C; 7.5 mg/ml RapH and 3.5 mg/ml Spo0F in 20 mM Tris-HCl (pH 8.0), 100 mM KCl, 2.5 mM DTT, 5 mM MgCl2; well 20% PEG 3350, 200 mM lithium sulphate, 100 mM Bis-Tris (pH 6.0); refined to 2.20 Å
RapH [4] = target: B4; test: as above; settings: both partners purified
RapH [5] = target: B4; test: crystal structure; crystals of native RapH with selenomethionyl Spo0F(D54E), as the native crystals but Bis-Tris at pH 5.8; SAD phasing, initial model at 2.70 Å; isomorphous to the native crystals; settings: both partners purified
[6] = target: T1, Spo0F~P (radiolabeled phosphorylated Spo0F-His) (B. subtilis); remark: listed apart in the source
[7] = target: T2, RapJ (B. subtilis), O34327; test: SEC; size exclusion chromatography with gel filtration standards; experimental against theoretical molecular weight; settings: remark: other sources report otherwise

Binder: B1
Spo0F~P remaining after 40 min, in vitro phosphatase assay (wild-type control 7%) (% of Spo0F~P remaining) [1]: 15

Binder: B2
Spo0F~P remaining after 30 min, in vitro phosphatase assay (wild-type control 3%) (% of Spo0F~P remaining) [1]: 54

Binder: B3
Spo0F~P remaining after 30 min, in vitro phosphatase assay (wild-type control 13%) (% of Spo0F~P remaining) [2]: 26

Binder: B4
stoichiometry N [3]: 2

Binder: B5
Spo0F~P remaining after 30 min, in vitro phosphatase assay (wild-type control 3%) (% of Spo0F~P remaining) [1]: 13

Binder: B6
Spo0F~P remaining after 30 min, in vitro phosphatase assay (wild-type control 3%) (% of Spo0F~P remaining) [2]: 28

Binder: B7
binding result (RapH [4]): binds

Binder: B8
binding result (RapH [5]): binds

Binder: B9
Spo0F~P remaining after 30 min, in vitro phosphatase assay (26 uM RapF); RapF-H50L dephosphorylates Spo0F (% of Spo0F~P remaining) [6]: 16

Binder: B10
Spo0F~P remaining after 30 min, in vitro phosphatase assay (26 uM RapF); wild-type RapF does not dephosphorylate Spo0F (% of Spo0F~P remaining) [6]: 54

Binder: B11
stoichiometry N [7]: 2
